Measurements from patent US20040138156A1, “Therapeutic regulation of deoxyribonuclease-1-like-3 activity” (priority 2002, published 2004).
“Also recorded” adds a separate entry of the source.

B1: D1L3: Deoxyribonuclease 1-like 3; murine wild-type (C57BL, 89T) enzyme supplied as media conditioned by transfected HeLa cells (protein)
chain: LRLCSFNVRSFGASKKENHEAMDIIVKIIKRCDLILLMEIKDSSNNICPMLMEKLNGNSRRSTTYNYVISSRLGRNTYKEQYAFVYKEKLVSVKTKYHYHDYQDGDTDVFSREPFVVWFHSPFTAVKDFVIVPLHTTPETSVKEIDELVDVYTDVRSQWKTENFIFMGDFNAGCSYVPKKAWQNIRLRTDPKFVWLIGDQEDTTVKKSTSCAYDRIVLCGQEIVNSVVPRSSGVFDFQKAYDLSEEEALDVSDHFPVEFKLQSSRAFTNNRKSVSLKKRKKGNRS
B2: D1: Murine deoxyribonuclease 1, glycosylated, supplied as media conditioned by transfected HeLa cells (protein, UniProt P49183 23-284, looked up)
Deoxyribonuclease-1: LRIAAFNIRTFGETKMSNATLSVYFVKILSRYDIAVIQEVRDSHLVAVGKLLDELNRDKPDTYRYVVSEPLGRKSYKEQYLFVYRPDQVSILDSYQYDDGCEPCGNDTFSREPAIVKFFSPYTEVQEFAIVPLHAAPTEAVSEIDALYDVYLDVWQKWGLEDIMFMGDFNAGCSYVTSSQWSSIRLRTSPIFQWLIPDSADTTVTSTHCAYDRIVVAGALLQAAVVPNSAVPFDFQAEYGLSNQLAEAISDHYPVEVTLRKI

Experiments:
bone marrow macrophages = assay: Induction of D1L3 in cultured bone marrow macrophages (anti-D1L3 immunoblot, RDA, zymogram); format: cell-based, C57BL mice; conditions: 100 U/ml for the interferons
Protocol: FIG. 22. Normal and induced expression of D1L3 in murine macrophages. […] In anti-D1L3 blots of cell lysates, the protein is seen both as a ^˜34 kDa uncleaved molecule and a ^˜28 kDa cleaved molecule. […] Cells were plated on serum-coated tissue culture dishes and incubated overnight, the next morning, non-adherent cells (N) were rinsed vigorously with PBS 1×, and both adeherent (A) and non-adherent cells (N) from C57BL, NZB/W, BXSB, and MRL were lysed and immunoblotted with anti-D1L3. While the ^˜34 kDa size band consistent with uncleaved D1L3 is present in both adherent and non-adherent, the cleaved form (^˜28 kDa) is present almost exclusively in the adherent population of presumed macrophages. Also noticable are the higher levels of expression of D1L3 in the 3 latter lupus strains. Panel B: Untreated bone marrow macrophages from NZB/WF1 mice have a much higher baseline expression expression of D1L3 than C57BL macrophages.
Induction is present in macrophages from both strain though the absolute level of induction appears greater in C57BL than in the SLE-prone NZB/W F1 strain. NZB/W protein loads in Ifn-γ-negative lane is slightly underloaded relative to actin. Panel C: Bone marrow macrophages isolated from bone marrow (via adherence) from MRL and C57BL mice, and cultured for 2 days in vitro, were induced by Ifn-γ. […] No induction of D1L3, RDA-DNASE, or zymographic DNASE activity is evident upon tratement with 100 U/ml of Ifn-alpha. […] Panel D: Bone marrow macrophages from C57BL and MRL mice cultured for 7 days in the presence of GM-CSF were induced with Ifn-γ, again showing the higher baseline levels of 28 kDa enzyme in the lupus prone strain, and in C57BL showing induction of levels aftern Ifn-γ. […]
Assays of Murine Cells. […] Splenocytes were counted using a hemochromocytometer, and plated at 2 million cells/ml on plastic 6-well Falcon tissue culture dishes (Becton Dickinson) in RPMI with 10% FCS. […]

free DNA = assay: Radial diffusion assay (RDA) of nuclease activity against free DNA in conditioned media; format: biochemical; conditions: for mean RDA activity of conditioned media: 24 hours, 37 degrees
Protocol: (§1) Transfection Reagents and Resistance Assays. Lipofection of respective pcDNA3.1-D1 or -D3 ([…] purified with Promega Wizard Plus DNA system) was performed independently into 1-2 million HeLa cells, which produce a low background of secreted nuclease activity, when grown in DMEM with 10% FCS (LifeTech) in 6 well culture plates (Becton-Dickinson). […] Media of the transfected cells were conditioned for 36-48 hours and served as source of the respective enzymes. Nuclease activity in conditioned supernatant was measured by RDAs, zymograms and by testing activity against supercoiled pBluescript (Stratagene).
Nuclease Assays. Nuclease activity against “naked” or free DNA in CM was quantified by densitometry of RDAs. For assays of media by murine cells, RDAs were performed using conditioned media, after 36 hour incubation of equal numbers of target cell population. Each conditioned media was sampled in triplicate. RDAs for all four mice were performed on a single dish. For RDAs, 2-5 ul of conditioned supernatant was dotted on 100 mm dishes containing 2% agarose, 250 ug/ml DNA, 0.001% EtBr, 0.5% filtered milk, 10 mM Ca^+2/MgCl2; and 12.5 ug/ml kanamycin. Multiple observations were generated for every sample obtained. After 24 hours of 37° incubation, plates are photographed under UV transillumination; and scanned photos were analyzed with NIH image. For RDAs, the activity was quantified as the product of mean density and area (traced on image) of zones of clearing. For observations of serum/urine, 2-5 ul of serum were dotted on agarose plates.
Zymograms are in-gel renaturation assays performed by SDS-PAGE through a gel impregnated with 200 µg/ml DNA and ethidium bromide, eluting away SDS with repeated washes in 25 mM Tris-HCl pH 7.5, then incubating for 12-16 hours at 37° C. in 25 mM Tris-HCl pH 7.5 with 10 mM Ca^+2/Mg^+2 buffer. Activity is measured as dark “bands” of DNA digestion (Rosenthal et al., (1977) Anal. Biochem. 80, 76-90) and quantified using scanned images using NIH Image. Photographed RDA results were scanned 600 dpi Tiff images, and activity was measured as pixel area times density of traced zones of clearing (n=3 for each zone). Student's T-test was used to compare paired results. Nuclease activity ratios were obtained by comparing intra-plate results.

HeLa cells = assay: BT assay: liposomal N1-eGFP transfection of HeLa cells in DNASE-conditioned media, GFP immunoblot; format: cell-based; conditions: for GFP fluorescence by fluorescent microscopy: 24 hours; for GFP transfection in ten-fold diluted conditioned media: ten-fold (five and ten fold) dilution of conditioned media; for BT activity / GFP expression or transfection efficiency in cells exposed to undiluted conditioned media: FuGENE-6
Protocol: In the main assay, an eukaryotic marker such as green fluorescent protein (GFP) expression plasmid complexed with a lipid reagent is transfected into HeLa cells incubated in control media, D1L3-conditioned media, or D1-conditioned media (FIG. 4). The assay is not limited to the use of GFP as a marker, but could use any of many expressed biomarkers encoded by nucleotides that can be assayed either immunochemistry, fluorescent detection, or enzymatic detectection, and these include but are not circumscribed to luciferase, chloramphenicol acetyl-transferase, antibiotic or chemical resistance genes, Beta-galactosidase, FLAG-, myc-hemaglutinnin-, or other epitope tagged molecules, as well as other markers of gene or nucleotide transduction. The endpoint of the assay is the detection of a synthesized protein, but could easily have been the detection of a transcribed gene product, since the assay ultimately measures the ability of D1L3 added the media/milieu overlaying the cells to block the ultimate association of an expressible plasmid with the transcriptional machinery.
as §1
To test for the ability of the nucleases to block transfection, the media in individual wells of naive HeLa cells were replaced with conditioned media, and cells transfected with […] of N1-eGFP plasmid (Clontech) using various transfection reagents (FIG. 11) and their respective protocols. GFP expression by immunoblot directly correlated with transfection efficiency in present experiments. Thus, transfection efficiency was compared by densitometric analysis of GFP immunoblots.
GFP expression was also examined by fluorescent microscopy using a FITC filter. For microscopy, cells were fixed for 5 minutes in 4% paraformaldehyde dissolved into 1% PBS.
Antibody Reagents and Immunoblotting. After 24-36 hours, cells transfected with N1-eGFP were lysed in SDS-buffer and immunoblotted for expression with anti-GFP at 1:5000 dilution (Clontech). To confirm nearly equal protein loading per lane, anti-β-actin monoclonal antibody at 1:7,000 dilution (Sigma) were prepared. For immunoblots, […] protein was eletrophoretically separated by 12% SDS-PAGE gel, followed by electrotransfer to Immobilon-P membranes (Millipore) for expression studies. Immunoblotting was performed using ECL detection (Amersham).
Transfection efficiency was compared, wherever possible, by pixel densitometry of the scanned images using Scion Image 4.02 software.

Ad5.CMV-GFP = assay: Adenoviral gene transduction of HeLa cells in conditioned media, GFP immunoblot; format: cell-based, adenovirus serotype 5; conditions: lysed at 72 hours
Protocol: FIG. 30. D3-media confers an in vitro barrier to adenoviral gene transduction (BT). This figure provides anti-GFP immunoblots at 1:5000 (Clontech) of Ad.V.GFP infected (MO 100:1) of 100,000 HeLa cells. Infection of HeLa cells with Ad5.CMV-GFP (a 1st generation (DE1/DE3) adenovirus serotype 5 expressing GFP under the control of CMV-IE promoter (Qbiogene)) was performed in the presence of D1, D3, D1+D3CT, or control conditioned media. Infected cells were lysed at 72 hours and tested for GFP expression (n=3 expts). […] Thus DNASE1L3 or DNASE enzymes linked to the D3CT diminish adenoviral gene transfer. […] Actin levels were generally equivalent in infected cells.

liposomal-bound plasmid = assay: Cell-free nuclease activity assay on free or FuGene-bound plasmid; format: biochemical; conditions: FuGene-bound plasmid, 37° C., 1 hour
Protocol: FIG. 16. […] Representative experiment (n=3) of exposure of […] free (−) or liposomal-bound (+FuGene) plasmid to control media with 10% fetal calf serum (lanes 1-2), D1 (lanes 3-4), D1L3 (lanes 5-6), D3DCT (lanes 7-8), and N196K-D3 (lanes 9-10).
Cell-Free Nuclease Activity Assay. Free plasmid DNA or plasmid complexed with lipofection reagent was incubated with conditioned at 37° C. for 1 hour. The incubation was terminated with […] EDTA, and DNA extracted using Promega Wizard DNA Purification System, eluted in […] water, and electrophoresed on a 1% agarose gel.

[1] = media conditioned by transfected HeLa cells

Molecule	induction of D1L3 in macrophages (bone marrow macrophages)	mean RDA activity of conditioned media (free DNA; [1])	GFP fluorescence by fluorescent microscopy (HeLa cells)	BT activity / GFP expression or transfection efficiency in cells exposed to undiluted conditioned media (HeLa cells; anti-GFP immunoblot)	GFP expression after Ad5.CMV-GFP infection / barrier to infection (Ad5.CMV-GFP)	state of liposome-bound plasmid after exposure to conditioned media (liposomal-bound plasmid)	also measured
CCCCCCCCCCCCCC(=O)O[C@@H]1[C@@H](C)[C@@]2(O)[C@@H](C=C(CO)C[C@]3(O)C(=O)C(C)=C[C@@H]23)[C@@H]2C(C)(C)[C@]12OC(C)=O [PMA, phorbol myristate acetate]	inducible	–	–	–	–	–	–
lipopolysaccaride [LPS]	inducible	–	–	–	–	–	–
B1	–	12.0 Units	absence of GFP fluorescence	No GFP expression; also recorded: effectively blocks transfection efficiency	afford a barrier to infection	mostly supercoiled plasmid is protected	BT effect of diluted conditioned media (HeLa cells; diluted 100 fold with control media or 10-fold with N196K conditioned media): complete BT effect; GFP transduction after pre-incubation in conditioned media (HeLa cells; naive cells incubated six hours, rinsed twice with PBS, transfected in control media): blocked; GFP transfection in ten-fold diluted conditioned media (HeLa cells): No GFP expression is clearly detectable; GFP transfection in ten-fold diluted conditioned media (HeLa cells; listed as 89T): nearly completely blocks GFP transduction; also recorded: no GFP transfection efficiency; GFP transfection in ten-fold diluted conditioned media (HeLa cells; listed as D3): No GFP expression is clearly detectable; BT activity / GFP expression or transfection efficiency in cells exposed to undiluted conditioned media (HeLa cells; anti-GFP immunoblot, listed as 89T): saturated BT activity; BT activity / GFP expression or transfection efficiency in cells exposed to undiluted conditioned media (HeLa cells; anti-GFP immunoblot, listed as D3): prevents GFP expression; also recorded: abolished; GFP expression after Ad5.CMV-GFP infection / barrier to infection (Ad5.CMV-GFP; listed as D3): prevents GFP expression; state of liposome-bound plasmid after exposure to conditioned media (liposomal-bound plasmid; listed as D1L3-CM): does not completely digest liposomal-bound DNA
B2	–	28.2 Units	abundant GFP	did not differ significantly from controls; also recorded: no significant decrease; also recorded: no effect	increased expression of GFP	all remaining plasmid migrated in a nicked or linearized conformation	RDA activity relative to D1L3 conditioned media (free DNA; densitometry of RDAs, n=24 assays): ~2.7 fold; RDA nuclease activity of conditioned media (in words) (free DNA; [1]): greater RDA activity than D3; mean ratio of GFP expression in exposed cells versus control (HeLa cells; n=20 assays, anti-GFP immunoblot): 0.8 ± 0.2
